Assay results from the DeepSol protein solubility set.

Assay: soluble on expression in E. coli; label from the status in PepcDB or PDB records

Row | Sequence | soluble on expression in E. coli
1 | MSLTAERQERLLARVEDAFGVISVYEVDDYRFLEFGDAIEQSCVFTADPSWLEYDYTRAMLVGALCHESPESALFLGLGAGTLTQACMKFLPLEDIEAIELRPDVPRLAMDYLGLDDDPRLYVRIGDALELLPTAEKADLLFVDLYTDHGPGVGHLAWNFLENCQQHLNPGGWLVINQWATDDGRPLGAALLRGLYHRHYWELPVKEGNVILLVPADLEQSLDLDGLRARAEALAPRLGYSLDGLIREIRPATEGHHHHHH | soluble
2 | MSLTAHRIGFLVWPGTKAMTLALAEEALRVAQRVHPEVVYELSFLQAELAEPAAVAGGWQLPGEPWTGRLEGLQKLFLLADEPPAAVAPALGSALKQLVRAGCSIGGLSAGVYPLAQLGLLDGYRAAVHWRWQDDFAERFPKVIATSHLFDWDRDRLTACGGMSVLDLLLAVLSRDHGAELAGAVSEELVVERIREGGERQRIPLQNRLGSSHPKLTQAVLLMEANIEEPLTTDEIAQHVCVSRRQLERIFKQYLNRVPSQYYLELRLNKARQMLMQTSKSIIQIGLSCGFSSGPHFSSAYRNFFGATPREDRNQRRSSSPFELSPVPAKGIITITTDPNSSSVDKLAAALEHHHHHH | soluble
3 | MSLTAIKHVAISCRRALTKCAKIGHTTVSVSRSLRKLSPTAFKTLRQAIAKVGHLNIMGQKIRLNDRELAANKVIMAVKKEEISKGILDPSQFTPGQHIFKTLAEVQKSPIFNLIKGMPKGGALHAHDTALCSTDYLISLTYRKNLWICTAEEGCKAIAFRFSKEEPKEKPVKESIWEPMEEFRERRGEENVTKYLTRRFSMYPFSKFISNNQAWAHFMGIFILLDGLLCHAPIWAEYYYNALKEFAEDGVQYLELRSLLPPLYCIDGDMLTIRDTVAIYNSELERFRADHPDFIGSKLIYAPLRGVEPSVVEQYVKTAVELNKEFPNFMVGFDLVGQEELGRPLIDFVEPLLKMPEHINFYFHAGETNWFGSPIDENLVDAILLGTKRIGHGYALTKHPMMMRLAKLLGIAIEVCPVSNQVLQLGVDYRNHPAALLLAANVPIVISSDDPSFWHCAPLSHDFYFAFLGIAPMKADLRFLKSLAINSIRYSALVGEEKRVGYRKWQEKWDKWIDDVVEHKYCEGHHHHHH | not soluble
4 | MSLTANRDKFRPVYHHTPLYGWMNDANGLVYKDGEYHLYFQYNPYGSVWGNMHWGHSVSKDLVHWEHLDPAIARDTLGHIFSGSAIVDKHNSAGYGENTIVAFYTSHRNIPSGQSQVQSMAYSTDNGRTYTKYEQNPVLTPFDGLQNFRDPKVFWYEPEQKWIMIVSADKNMRFYSSANLKQWEYMSEFGEGFGPQPNQFECPDFIQLPVDGDRTRMKWVMIVNINPGFVYGGSGTMYFTGDFDGHQFVCDTKPEVVKWLDWGKDHYATVCFSNTGDRVIAVPWMSNWQYANYTPIQQFRSANALPRELSLYTGEDKQLYLSAAPVKETEHLRKDSKKLDDFTVNGEKRLETLFENNDGAFELELQLVSAGKEAGFELLNSLGEKVKIYLDASEGRVVMDRAESGIVDFGKKVKPHDLDTEESYARYKEVTVNYKNDFALGTWAPINTAKAHKIQVFVDNGSVELFVDGGRVAMTNLVFPNEPYNSLRFYSKGGEMKISNFTIYKLGLEGHHHHHH | soluble
5 | MSLTDAKHGETIQGPMSYGHWIAGRETHSGGASFPSHNPTTGAEWGRFALGSQDTVGDAVAAATAAFEGAEWSSLSPTRRGRLMMRWGDAIAQHAEKLGALETSQNGKLLSEMVLQARIVPDWLYYYGGLADKIEGRVIPVERRSVLNYTRREALGVVGVIMPWNSPLFLTTMAVAPALAAGNTVVIKPSEVSSASIIEAVKLAEQIGFPRGVLNVVTGGRETAEALIDHCGVAKIAFTGGVEAGRAVGVRAARRMAQVTLELGGKSANIVFPDADLAQARAGLLAGIFAAAGQTCVAGSRAFVHRSIHDRLLAELAERAKNIRIGNPLDPATQMGPVATKAQLDKDESMVRRAIDEGAQVVHGGCRAAVDGFPGGYFYTPTILTGVSPGSYIAQNEVFGPVLSVIPFDDEDEVIALANGTGFGLAAGIWSLNIRQAHRVANQLQAGTVWVNMYRAMSFNSPFGGYKASGIGRQNGIEAIDSYLQTKSIWCELSQEEGHHHHHH | not soluble
6 | MSLTDIKMIALGGVREYGKNFYLVEINDSMFILDAGLKYPENEQLGVDLVIPNLDYVIENKGKVQGIFLSHGHADAIGALPYLLAEVSAPVFGSELTIELAKLFVKSNNSTKKFNNFHVVDSDTEIEFKDGLVSFFRTTHSIPESMGIVIGTDKGNIVYTGDFKFDQAAREGYQTDLLRLAEIGKEGVLALLSDSVNATSNDQIASESEVGEEMDSVISDADGRVIVAAVASNLVRIQQVFDSATAHGRRVVLTGTDAENIVRTALRLEKLMITDERLLIKPKDMSKFEDHELIILEAGRMGEPINSLQKMAAGRHRYVQIKEGDLVYIVTTPSTAKEAMVARVENLIYKAGGSVKLITQNLRVSGHANGRDLQLLMNLLKPQYLFPVQGEYRDLAAHAKLAEEVGIFPENIHILKRGDIMVLNDEGFLHEGGVPASDVMIDGNAIGDVGNIVLRDRKVLSEDGIFIVAITVSKKEKRIISKAKVNTRGFVYVKKSHDILRESAELVNTTVGNYLKKDTFDWGELKGNVRDDLSKFLFEQTKRRPAILPVVMEVREGHHHHHH | soluble
7 | MSLTDKPQAEVIAVYPNKVKICVDDLGSFTEGHPLLRVGSYLRVTDHEDCILIAIIESFLIEVDDRKNRRHVIEALPLGVIKDDKFIRGGDALTIPPTGVAPATIQDIKKIFEDSVPTNRKFEFSSLVTDPDIRVPVDGNRFFNKHIAVVGSTGAGKSNTVTRIIQTSTTKTPSGTQNNSHAIIFDIHSEYKAAFPHANHIDINSLNLPYWLLNSDELEEVLLDTGERDNYNQSSVFRYLVTENKKKHNEGHHHHHH | not soluble
8 | MSLTEDVTSQTSESLARHSVLAEDLSQDGLTSLGAPGARVLLVWDAPNLDMGLGSILGRRPTALERPRFDALGRWLLARTAEIVAGRPGISTEPEATVFTNIAPGSAEVVRPWVDALRNVGFAVFAKPKVDEDSDVDRDMLAHIDERYREGLAALVVASADGQAFRQPLEAVARSGTPVQVLGFREHASWALASDTLEFVDLEDIAGVFREPLPRIGLDSLPEQGAWLQPFRPLSSLLTSRV | soluble
9 | MSLTEKCVIKIGGSVLKDGSSLPRVMDIISHFRSPILVVSAFGGITDALYRFYEYDESRMDKLRDLLLMHLGILWKYNIEAHPEISIQDSSILDQDAYVSYGEKMSAFTLARFLTGNGIPAAPIYTDEAGLIVEEISKERTVDLEGSRAFFENIARVETSGKVPVVTGFFGIDRYGKTRILGRNSSDYSAVAVAAILGIREVILIKDVPGIYMNLEDRTSIVNRIDYETALRIVDRGSKVVHRAALRLAMKMGMNLLITSPENLESGTVIGDLFEGHHHHHH | soluble
10 | MSLTEKFRPTLKDVARQAGVSIATASRALADNPAVAASTRERIQQLASDLGYRANAQARALRSSRSNTIGVIVPSLINHYFAAMVTEIQSTASKAGLATIITNSNEDATTMSGSLEFLTSHGVDGIICVPNEECANQLEDLQKQGMPVVLVDRELPGDSTIPTATSNPQPGIAAAVELLAHNNALPIGYLSGPMDTSTGRERLEDFKAACANSKIGEQLVFLGGYEQSVGFEGATKLLDQGAKTLFAGDSMMTIGVIEACHKAGLVIGKDVSVIGFDTHPLFALQPHPLTVIDQNVEQLAQRAVSILTELIAGTVPSVTKTTIPTALIHRESIINSTLRKEGHHHHHH | soluble
11 | MSLTGQLHPAVRVADLLQHINQMKTAEGYGFKQEYESFFEGWDATKKKDKVKGSRQEPMPAYDRHRVKLHPMLGDPNADYINANYIDGYHRSNHFIATQGPKPEMVYDFWRMVWQEHCSSIVMITKLVEVGRVKCSRYWPEDSDTYGDIKIMLVKTETLAEYVVRTFALERRGYSARHEVRQFHFTAWPEHGVPYHATGLLAFIRRVKASTPPDAGPIVIHCSAGTGRTGCYIVLDVMLDMAECEGVVDIYNCVKTLCSRRVNMIQTEEQYIFIHDAILEACLCGETTIPVSEFKATYKEMIRIDPQSNSSQLREEFQTLNSVTPPLDVEECSIALLPRNRDKNRSMDVLPPDRCLPFLISTDGDSNNYINAALTDSYTRSAAFIVTLHPLQSTTPDFWRLVYDYGCTSIVMLNQLNQSNSAWPCLQYWPEPGRQQYGLMEVEFMSGTADEDLVARVFRVQNISRLQEGHLLVRHFQFLRWSAYRDTPDSKKAFLHLLAEVDKWQAESGDGRTIVHCLNGGGRSGTFCACATVLEMIRCHNLVDVFFAAKTLRNYKPNMVETMDQYHFCYDVALEYLEGLESREGHHHHHH | soluble
12 | MSLTHSTMHPYISLLDNEIYTHQGKEVITNMYNIIEKNLTLNLIANNVQYHPNQKTISFTHPSITIFNNKNIAIWYITCNQAQLYHQKKTLNLHGQVFINQIVKKICTQSIITNQLLIDLNNQSIISNNKTIIHGHYFYSIGSCMNINLHTQTTTLFGKIYTQYEIQNMEGHHHHHH | not soluble
13 | MSLTITVNGVEISEDMIASQLDHYADTPSPRDTAIQQLILHTLLIQQAKSEGLDVADEQQAIQTLLDSKLQVPAIDEASCREFYDRYPERFSAGESAVASHILLPKGEGLEASLIKAKAEGILEEAQANPSRFAALAQEHSTCPSGKQGGSLGQFGRGQMVPEFEQAVFSTEAGQITPHLVETQFGYHIIQVEQRAEGGKIGFDEVKERLQHYLADLAVNQAMHEYLNMLVSAAQISGYQMTAEGHHHHHH | soluble
14 | MSLTNDERILSWNETPSKPRYTPPPGAIDAHCHVFGPMAQFPFSPKAKYLPRDAGPDMLFALRDHLGFARNVIVQASCHGTDNAATLDAIARAQGKARGIAVVDPAIDEAELAALHEGGMRGIRFNFLKRLVDDAPKDKFLEVAGRLPAGWHVVIYFEADILEELRPFMDAIPVPIVIDHMGRPDVRQGPDGADMKAFRRLLDSREDIWFKATCPDRLDPAGPPWDDFARSVAPLVADYADRVIWGTDWPHPNMQDAIPDDGLVVDMIPRIAPTPELQHKMLVTNPMRLYWSEEMEGHHHHHH | soluble
15 | MSLTNLLIRNVRPSADAALDILIEGDRIARIGPSLDAPAGCAIEDGAGALALPGLVEGHTHLDKTHWGMPWYRNQVGPRLVDRIENERHYRATSGHDAGAASLALARAFLAAGTTRIRTHVDIDTEAGLRHLHGVLATRETLRGEVDIQIVAFPQSGVLKRPGTDVLLSDALAAGADLLGGLDPCAIEGDPVEAVDVLFAIAERHGRGLDLHLHERGSMGAYSLDLILQRTATHGMQGKVTISHGFCLGDIGERERDALLARMAELGVGLVTTAPAAVPVPPVAACRAAGVTVIGGNDGVRDTWTPYGSPDMLERAMLIGMRNDFRRDDALEVALDCVTHGAARGCGFGDYGLQPGSRADVVLVDALTFAEAVVARPVRRLVVSSGKIVARNGALVEGHHHHHH | soluble
16 | MSLTNSSNLIDGIEVYVLNNPKDVKPHWVSHFIVPTANELLIKIKTKNGNSGFGVATSYTDIKPIIKPFTNGLQDLVIGEDPFCPEKIYDKIFKLTDTRMSSEKGWSREALIRISAALDIACWDLIGKAANIPLYKLFGGYRNQIPVYVTCAYYRDGKDEIELRDELKKLIDIGHQSFKVKVGGLSIKEDAKRLETIRNEIGNQKDLMIDVNRAWDLKTAIEGVKEFKKFNPIWIEEPVRWEDDRRNLKLLSKQTDIPLSGGESEITIHGCRSMIEEEAIQILQFDCTMFGGFTNGKKLSALCEINHIDIAPHHDCYIHAPLVASSPSGRIVESFDDERDPIQSELFENQHKMSNGWIYLNENPGLGFDISEAALKKFGKLVYKKEGHHHHHH | soluble
